Assay results reported in publication PMC11588112 (Proceedings of the National Academy of Sciences of the …, 2024).

Target: mumps hemagglutinin neuraminidase (HN) globular head domain, monomeric (Mumps virus genotype G (strain not …))

| Binder | binding result |
| --- | --- |
| E7 (antibody, V domains shown) VH: EVKLVESGGGLVQPGGSLRLSCATSGFTFTDYYMSWVRQTPGKALEWLGFIRNKPNGYTTEYNASVKGRFTISRDNSRSVLYLQMNVLRAEDSATYFCARVPHDYGFFDYWGQGTTLTVSS VL: DVLMTQSPLSLPVSLGDQASISCRSSQSIEHINGHTYLEWYLQKPGQSPKVLIYKVSNRFSGVPDRFSGSGSGTDFTLRISRVEAEDLGVYYCFQASHLPYTFGGGTKLEIK | binds |
| B11 (antibody, V domains shown) VH: EVQLQQSGAEPVRPGTSVKFSCKASGYTLTDYWMHWVKQRPGQGLDWIGVIDPSDSYTTYNQKFKGKATLTVDKSSSTAYMQLSSLTSEDSAVYYCARGPTLYYFDYWGQGTTLTVSS VL: DIVMTQPQKFMSTSVGDRVSVTCKASQNVGTNVVWCQQKPGQSPKALIYSASYLYSGVPDRFTGTGSGTDFTLTISNVQSEDLAEYFCQQYNNYPLTFGAGTKLELK | binds |
| C9 (antibody, V domains shown) VH: EVKLLQSGGGLVQPGGSLKLSCAASGIDFSRYWMGWVRRAPGKGLEWIGEINPDSSTINYAPSLKDKFIISRDNAKNTLYLQMIKVRSEDTALYYCARYWADWFFDVWGTGTTVTVSS VL: DIQMTQSSSYLSVSLGGRVTITCTASDHIDNWLAWYQQKPGNAPRLLLSGATSLDTGVPSRFSGSGSGKDFTLSITSLQTEDVATYYCQQYWSTPYTFGGGTKLEIK | binds |
| D11 (antibody, V domains shown) VH: EVQLQQSGAELVRPGTSVKLSCKTSGYTFISYWIHWVKQRPGQGLEWIGVIDPSDSYTNYNQNFKGKVTLTVDTSSSTAYMQLSSLTSEDSAVYYCARFDYDDYWGQGTTLTVSS VL: QIVLTQSPAIMSASPGEKVTMTCSASSSVTYMQWYKQKSGTSPKRWIYDTSKLASGVPARFSGSGSGTSYSLTISSMEAEDAATYYCQQWNTNPWTFGGGTKLEIK | binds |
| C7 (antibody, V domains shown) VH: QITQKSEGSGILQPSQTLSLTCSFSGFSLNISGMGVGWIRQPSGKGLEWLAHIWWDDVKRYNPALKSRLTISKDTSSRQVFLKIASVDTADTATYYCVRIDNSYAMDYWGQGTSVTVSS VL: DIVLTQSPASLAVSLGQRATISCRASKSVSTSGYSYVHWFQQKPGQPPKLLIYLASNLESGVPARFSGSGSGTDFTLNIHPVEEEDAATYYCQHSRELPWTFGGGTKLEIK | binds |
| B12 (antibody, V domains shown) VH: EVQLQQSGPELVKPGASVKIPCKASGYTFTEYNMDWVKQSHGKSLEWIGDINPNNGDTIYNQKFKGKATLTVDKASSTAYMELRSLTSEDTAVYYCARGTLYGSNYYFVMDYWGQGTSVTVSS VL: DIQITQSPASLSASVGETVTITCGASENIYGALNWFQRKQGKSPQLLIYGATTLADGMSSRFSGNGSGRQYSLKISGLHPDDVATYYCQNVLSIPWTFGGGTKLEIK | binds |
| G6 (antibody, V domains shown) VH: QIQLVQSGPELKKPGETVKISCKASGYTFTPYGLSWVKQAPGKVLKWMGWINTSSGVPTYADDFKGRFAFSLETSVSTAYLQINNLKNEDTATYFCARISVSFYYGLYFDYWGQGTTLTVSS VL: DIQMTQSPSSMSVSLGDTVSITCHASQGIANNIGWLQQKPGKSFKGLLYHGSTLEDGVPSRFSGSGSGAAYSLTISSLESEDFADYYCIQYAQLPYTFGGGTKLEIK | binds |
| G9 (antibody, V domains shown) VH: EVQLQQSGPEQVRTGASVKISCKASGYFFTGYYLHWVRQSHGKSLEWIGYIRSYNGATKYNQKFEGKTTFTVDTSSSTAYMQINSLTSEDSAVYYCAKDEDSGYAMDYWGQGTSVTVSS VL: DIVMTQSHKFMSTLVGDRVAITCKASQDVSSAVAWYQQKPGQSPKLLIYSASYRFTGVPDRFTGSGSGTDFTFTITTVQTEDLAIYFCQQHYSLPWTFGGGTKLEIK | binds |
| F11 (antibody, V domains shown) VH: EVQLQQSGPELVKPGASVKISCKASGYTFTDYYMNWVKQSHGKSLEWVGDINPNNGVTRYNQNFKGKGTMTVDKSSRTAYMEFRSLTSEDSAVYYCGRLGYYGKYKDGMDYWGQGTSVTVSS VL: DIQMTQSPASLSVSVGETVTITCRASDNIYSNLAWYQQRQGKSPQLLVYAATNLLDGVPSRFSGSGSGTHYSLKINSLQSEDFGTYYCQHFWGTPFTFGSGTKLEIK | binds |
| E10 (antibody, V domains shown) VH: EVQLQQSGAELVRPGSSVKLSCKASGYTFTWYWIDWMKQRPGQGLEWIGNIYPSDSEVQYNQKFKDRATLTLDKSSTTAYMQLSSLTSEDSAVYYCARRLYDYFALDFWGQGTSVTVSS VL: DIVMTQAAFSNPVTLGTSASISCRSSKSLQHSNGITYLYWYLQKPGQSPQLLIYQMSKFASGVPDRFSSSGSGTDFTLRISRVEAEDVGVYYCAQNLELPWTFGGGTKLEIK | binds |
| F10 (antibody, V domains shown) VH: EVQLQQSGAELVRPGSSVKLSCKASGYTFTWYWIDWLKQRPGQGLEWIGNIYPSDSAVQYNQNFKDRATLTLDTSSTTAYLHLSSLTSEDSAVYYCARRIYDYFALDFWGQGTSVTVSS VL: DIVMTQAAFSHPVTLGTSASISCRSSKSLQHSNGITFLYWYLQKPGQSPQLLIYQMSKLASGIPDRFSSSGSGTDFTLRISRVEAEDVGVYYCAQNLELPWTFGGGTKLEIK | binds |
